Laboratory results published in patent publication US20110212476A1.

Molecular target: Gαi1 R178M/A326S (human)
Test: cell-based or functional assay

Gαi1 R178M/A326S (human), sequence (B2RSH2 2-354 R178M/A326S): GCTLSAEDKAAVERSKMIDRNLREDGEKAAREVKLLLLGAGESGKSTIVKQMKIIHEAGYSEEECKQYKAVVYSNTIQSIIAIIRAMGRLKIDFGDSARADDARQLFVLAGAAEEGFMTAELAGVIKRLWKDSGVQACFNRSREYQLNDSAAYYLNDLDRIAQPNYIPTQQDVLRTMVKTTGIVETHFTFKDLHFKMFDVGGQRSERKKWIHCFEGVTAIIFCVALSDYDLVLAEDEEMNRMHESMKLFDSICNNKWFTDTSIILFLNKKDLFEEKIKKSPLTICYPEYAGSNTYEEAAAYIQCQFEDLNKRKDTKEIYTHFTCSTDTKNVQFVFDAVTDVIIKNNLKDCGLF

stimulation of GTPase activity: 8.8 fold
B1: RGS21 (wild type RGS domain) (protein)
chain: NMDTLLANQAGLDAFRIFLKSEFSEENVEFWLACEDFKKTKNADKIASKAKMIYSEFIEADAPKEINIDFGTRDLISKNIAEPTLKCFDEAQKLIYCLMAKDSFPRFLKSEIYKKLV
